Test results published in patent EP4624492A1.
Where a chain is given by its changes, count along the chain named. Like-named read-outs stand apart in the source and are kept apart here.

Legend:
[1] = biological target: human CCR8 (human) (UniProt P51685); test: flow cytometry, competition with 10 nM AF647-human CCL1 on 293F-hCCR8 cells
[2] = biological target: human CCR8 (human) (UniProt P51685); test: as above; remark: listed apart in the source
[3] = biological target: human CCR8 (human) (UniProt P51685); test: flow cytometry on HuT78 cells (endogenous CCR8)
[4] = biological target: human CCR8 (human) (UniProt P51685); test: flow cytometry on 293F-hCCR8 cells
[5] = biological target: cynomolgus CCR8 (cynomolgus monkey); test: flow cytometry on 293T-cynoCCR8 cells
[6] = biological target: cynomolgus CCR8 (cynomolgus monkey); test: flow cytometry on 293T-cynoCCR8 cells; remark: listed apart in the source
[7] = biological target: human CCR8 (human) (UniProt P51685); test: flow cytometry, competition with 10 nM AF647-human CCL1 on 293F-hCCR8 cells; remark: listed apart in the source
[8] = biological target: human CCR8 (human) (UniProt P51685); test: flow cytometry on 293F-hCCR8 cells; remark: listed apart in the source
[9] = biological target: human CCR8 (human) (UniProt P51685); test: cell-based or functional assay
[10] = biological target: human CCR8 (human) (UniProt P51685); test: flow cytometry on 293F-hCCR8 cells; remark: listed apart in the source
[11] = biological target: human CCR8 (human) (UniProt P51685); test: flow cytometry on CHOK1-hCCR8 cells

Sequence of human CCR8 (human) (P51685 whole entry): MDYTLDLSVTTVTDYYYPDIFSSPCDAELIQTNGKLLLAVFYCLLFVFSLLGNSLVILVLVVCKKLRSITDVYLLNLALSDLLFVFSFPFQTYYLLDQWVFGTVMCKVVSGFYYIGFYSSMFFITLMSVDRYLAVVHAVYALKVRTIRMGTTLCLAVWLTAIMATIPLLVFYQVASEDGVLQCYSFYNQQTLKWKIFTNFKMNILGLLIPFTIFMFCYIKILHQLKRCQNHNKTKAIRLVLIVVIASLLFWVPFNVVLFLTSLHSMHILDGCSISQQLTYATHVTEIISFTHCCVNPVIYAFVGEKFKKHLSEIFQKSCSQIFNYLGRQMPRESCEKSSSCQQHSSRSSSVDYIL

B1: anti-human CCR8 433H (antibody, from another filing, V domains shown)
VH: EVQLVETGGGLVQPKGSLRLSCAASGFPFNTFAMNWVRQAPGKGLEWLARIRSKSNNYATYYADSVKDRFTISRDDSRRMLYLLMNNVKFEDTAIYYCVRGKENNYGYAMDYWGQGTSVTVSS
VL: DIVMTQAAPSVPVTPGESVSISCRSSQSLLHSNGNTYLYWFLQRPGQSPQLLIYRMSNLASGVPDRFSGSGSGTAFTLRISRVEAEDVGVYYCMQHLEYPFTFGIGTKLELKR
IC50 [1]: 0.0943 µg/mL
IC50 [2]: 0.0705 µg/mL
EC50 [3]: 0.0763 µg/mL
EC50 [4]: 0.153 µg/mL
EC50 [5]: 14.6 µg/mL
EC50 [6]: 15.3 µg/mL
IC50 [7]: 0.0965 µg/mL
EC50 [8]: 0.206 µg/mL
IC50 of blockade of CCL1-induced β-arrestin recruitment [9]: 2.36 µg/mL
IC50 of blockade of CCL1-induced β-arrestin recruitment (Tango-H CCR8-CHO-K1 cells) [9]: 1.29 µg/mL
EC50 [10]: 0.156 µg/mL
EC50 [11]: 0.0788 µg/mL

B2: 559E1B10_hzH0L0_hIgG1 (antibody, V domains shown)
VH: QVQLVQSGAEVKKPGASVKVSCKASGYTFTDYYVNWVRQAPGQGLEWMGVINPHNGDTRYNQKFKGRVTMTRDTSTSTVYMELSSLRSEDTAVYYCASWLRRGYYFDSWGQGTTVTVSS
VL: EIVLTQSPATLSLSPGERATLSCRASQSISDYLHWYQQKPGQAPRLLIYYVSQSISGIPARFSGSGSGTDFTLTISSLEPEDFAVYYCQNGHSFPLTFGGGTKVEIKR
EC50 of activation of Jurkat-human FcγRIIIa(158V)-NFAT with 293F-hCCR8 target cells [9]: 0.855 µg/mL

B3: 559E1B10_hzH1L0_hIgG1 (antibody, V domains shown)
VH: B2 VH with R72V, T74K
VL: B2 VL
EC50 of activation of Jurkat-human FcγRIIIa(158V)-NFAT with 293F-hCCR8 target cells [9]: 1.69 µg/mL

B4: 559E1B10_hzH2L0_hIgG1 (antibody, V domains shown)
VH: B2 VH with M48I, V68A, M70L, R72V, T74K
VL: B2 VL
EC50 of activation of Jurkat-human FcγRIIIa(158V)-NFAT with 293F-hCCR8 target cells [9]: 0.706 µg/mL

B5: B16_hIgG1 (antibody, from another filing, V domains shown)
VH: EVQLVESGGGLVQPGGSLKLSCAASGFTFNTYAMNWVRQASGKGLEWVGRIRSKSNNYATYYADSVKDRFTISRDDSKNTAYLQMNSLKTEDTAVYYCVRGLLRYRFFDVWGQGTTVTVSS
VL: DIVMTQSPLSLPVTPGEPASISCRSSKSLLHSNGNTYLYWFLQKPGQSPQLLIYRMSNLASGVPDRFSGSGSGTDFTLKISRVEAEDVGVYYCMQHLEYPFTFGGGTKVEIKR
EC50 [3]: 0.0364 µg/mL
EC50 of ADCC effect (lysis%) by human PBMCs on CHOK1-hCCR8 cells [9]: 0.00238 µg/mL
EC50 of activation of Jurkat-human FcγRIIIa(158V)-NFAT with 293F-hCCR8 target cells [9]: 0.0131 µg/mL
EC50 of activation of Jurkat-human FcγRIIIa(158V)-NFAT with CHOK1-hCCR8 target cells [9]: 0.0265 µg/mL
EC50 [11]: 0.0356 µg/mL

B6: 4A19_hIgG1 (antibody, from another filing, V domains shown)
VH: QVQLVQSGAEVKKPGASVKVSCKASGYTFTDSEMHWVRQATGQGLEWMGAIQPETGGTAYNQKFKARVTMTRDTSISTAYMELSSLRSEDTAVYYCARRRRNFDYWGQGTLVTVSS
VL: DIVMTQTPLSLSVTPGQPASISCRSSQSLFHSSGNTYLHWYLQKPGQPPQLLIYKVSNRFSGVPDRFSGSGSGTDFTLKISRVEAEDVGVYYCSQSTHVPFTFGQGTKLEIKR
EC50 of activation of Jurkat-human FcγRIIIa(158V)-NFAT with CHOK1-hCCR8 target cells [9]: 0.0141 µg/mL
